# According to the Human Domainome abundance scans (Beltran et al. 2025):
# ± gives the uncertainty stated by the source.
# Assay: abundance fitness (aPCA) (normalised: wild type 0, dead -1); higher = more abundant; growth selection in yeast, the domain comes from the species named
# Details: Homo sapiens
row,Substance,abundance fitness
1,"NEDD4-like E3 ubiquitin-protein ligase WWP2 P475V, O00308",-0.631 ± 0.038
2,"NEDD4-like E3 ubiquitin-protein ligase WWP2 P475W, O00308",-0.829 ± 0.067
3,"NEDD4-like E3 ubiquitin-protein ligase WWP2 P475Y, O00308",-0.984 ± 0.15
4,"NEDD4-like E3 ubiquitin-protein ligase WWP2 P477A, O00308",0.076 ± 0.052
5,"NEDD4-like E3 ubiquitin-protein ligase WWP2 P477C, O00308",-0.084 ± 0.066
6,"NEDD4-like E3 ubiquitin-protein ligase WWP2 P477D, O00308",-0.009 ± 0.059
7,"NEDD4-like E3 ubiquitin-protein ligase WWP2 P477E, O00308",0.001 ± 0.05
8,"NEDD4-like E3 ubiquitin-protein ligase WWP2 P477F, O00308",-0.091 ± 0.073
9,"NEDD4-like E3 ubiquitin-protein ligase WWP2 P477G, O00308",-0.019 ± 0.031
10,"NEDD4-like E3 ubiquitin-protein ligase WWP2 P477I, O00308",0.13 ± 0.075
11,"NEDD4-like E3 ubiquitin-protein ligase WWP2 P477K, O00308",-0.037 ± 0.052
12,"NEDD4-like E3 ubiquitin-protein ligase WWP2 P477L, O00308",-0.038 ± 0.034
13,"NEDD4-like E3 ubiquitin-protein ligase WWP2 P477M, O00308",-0.011 ± 0.05
14,"NEDD4-like E3 ubiquitin-protein ligase WWP2 P477N, O00308",-0.081 ± 0.053
15,"NEDD4-like E3 ubiquitin-protein ligase WWP2 P477Q, O00308",-0.394 ± 0.1
16,"NEDD4-like E3 ubiquitin-protein ligase WWP2 P477S, O00308",-0.02 ± 0.037
17,"NEDD4-like E3 ubiquitin-protein ligase WWP2 P477T, O00308",-0.215 ± 0.068
18,"NEDD4-like E3 ubiquitin-protein ligase WWP2 P477V, O00308",0.037 ± 0.034
19,"NEDD4-like E3 ubiquitin-protein ligase WWP2 P477W, O00308",-0.138 ± 0.048
20,"NEDD4-like E3 ubiquitin-protein ligase WWP2 P477Y, O00308",-0.145 ± 0.063
21,"NEDD4-like E3 ubiquitin-protein ligase WWP2 P488A, O00308",-0.31 ± 0.037
22,"NEDD4-like E3 ubiquitin-protein ligase WWP2 P488C, O00308",-0.049 ± 0.058

row,Substance,abundance fitness
1,"NEDD4-like E3 ubiquitin-protein ligase WWP2 P488D, O00308",0.033 ± 0.053
2,"NEDD4-like E3 ubiquitin-protein ligase WWP2 P488E, O00308",0.018 ± 0.055
3,"NEDD4-like E3 ubiquitin-protein ligase WWP2 P488F, O00308",-0.127 ± 0.064
4,"NEDD4-like E3 ubiquitin-protein ligase WWP2 P488G, O00308",-0.032 ± 0.04
5,"NEDD4-like E3 ubiquitin-protein ligase WWP2 P488H, O00308",0.024 ± 0.062
6,"NEDD4-like E3 ubiquitin-protein ligase WWP2 P488I, O00308",-0.163 ± 0.069
7,"NEDD4-like E3 ubiquitin-protein ligase WWP2 P488K, O00308",-0.04 ± 0.053
8,"NEDD4-like E3 ubiquitin-protein ligase WWP2 P488L, O00308",-0.063 ± 0.038
9,"NEDD4-like E3 ubiquitin-protein ligase WWP2 P488M, O00308",-0.018 ± 0.057
10,"NEDD4-like E3 ubiquitin-protein ligase WWP2 P488N, O00308",0.021 ± 0.051
11,"NEDD4-like E3 ubiquitin-protein ligase WWP2 P488Q, O00308",-0.028 ± 0.033
12,"NEDD4-like E3 ubiquitin-protein ligase WWP2 P488T, O00308",-0.044 ± 0.048
13,"NEDD4-like E3 ubiquitin-protein ligase WWP2 P488V, O00308",-0.037 ± 0.042
14,"NEDD4-like E3 ubiquitin-protein ligase WWP2 P488W, O00308",-0.144 ± 0.048
15,"NEDD4-like E3 ubiquitin-protein ligase WWP2 P488Y, O00308",-0.066 ± 0.043
16,"NEDD4-like E3 ubiquitin-protein ligase WWP2 Q442A, O00308",-0.07 ± 0.035
17,"NEDD4-like E3 ubiquitin-protein ligase WWP2 Q442C, O00308",0.121 ± 0.079
18,"NEDD4-like E3 ubiquitin-protein ligase WWP2 Q442D, O00308",0.079 ± 0.066
19,"NEDD4-like E3 ubiquitin-protein ligase WWP2 Q442E, O00308",0.069 ± 0.04
20,"NEDD4-like E3 ubiquitin-protein ligase WWP2 Q442F, O00308",0.128 ± 0.059
21,"NEDD4-like E3 ubiquitin-protein ligase WWP2 Q442G, O00308",-0.071 ± 0.052
22,"NEDD4-like E3 ubiquitin-protein ligase WWP2 Q442H, O00308",-0.108 ± 0.086

row,Substance,abundance fitness
1,"NEDD4-like E3 ubiquitin-protein ligase WWP2 Q442K, O00308",0.195 ± 0.069
2,"NEDD4-like E3 ubiquitin-protein ligase WWP2 Q442L, O00308",-0.058 ± 0.045
3,"NEDD4-like E3 ubiquitin-protein ligase WWP2 Q442M, O00308",0.038 ± 0.078
4,"NEDD4-like E3 ubiquitin-protein ligase WWP2 Q442N, O00308",0.097 ± 0.086
5,"NEDD4-like E3 ubiquitin-protein ligase WWP2 Q442P, O00308",-0.067 ± 0.039
6,"NEDD4-like E3 ubiquitin-protein ligase WWP2 Q442S, O00308",0.008 ± 0.042
7,"NEDD4-like E3 ubiquitin-protein ligase WWP2 Q442T, O00308",0.048 ± 0.03
8,"NEDD4-like E3 ubiquitin-protein ligase WWP2 Q442V, O00308",0.093 ± 0.042
9,"NEDD4-like E3 ubiquitin-protein ligase WWP2 Q442W, O00308",-0.122 ± 0.072
10,"NEDD4-like E3 ubiquitin-protein ligase WWP2 Q442Y, O00308",0.033 ± 0.048
11,"NEDD4-like E3 ubiquitin-protein ligase WWP2 Q485A, O00308",-0.036 ± 0.039
12,"NEDD4-like E3 ubiquitin-protein ligase WWP2 Q485C, O00308",-0.071 ± 0.053
13,"NEDD4-like E3 ubiquitin-protein ligase WWP2 Q485D, O00308",-0.003 ± 0.053
14,"NEDD4-like E3 ubiquitin-protein ligase WWP2 Q485E, O00308",-0.034 ± 0.046
15,"NEDD4-like E3 ubiquitin-protein ligase WWP2 Q485F, O00308",-0.149 ± 0.075
16,"NEDD4-like E3 ubiquitin-protein ligase WWP2 Q485G, O00308",-0.004 ± 0.035
17,"NEDD4-like E3 ubiquitin-protein ligase WWP2 Q485L, O00308",-0.053 ± 0.035
18,"NEDD4-like E3 ubiquitin-protein ligase WWP2 Q485M, O00308",-0.038 ± 0.048
19,"NEDD4-like E3 ubiquitin-protein ligase WWP2 Q485N, O00308",0.095 ± 0.067
20,"NEDD4-like E3 ubiquitin-protein ligase WWP2 Q485P, O00308",-0.184 ± 0.068
21,"NEDD4-like E3 ubiquitin-protein ligase WWP2 Q485R, O00308",-0.028 ± 0.038
22,"NEDD4-like E3 ubiquitin-protein ligase WWP2 Q485S, O00308",-0.053 ± 0.046

row,Substance,abundance fitness
1,"NEDD4-like E3 ubiquitin-protein ligase WWP2 Q485W, O00308",-0.149 ± 0.062
2,"NEDD4-like E3 ubiquitin-protein ligase WWP2 Q485Y, O00308",-0.126 ± 0.072
3,"NEDD4-like E3 ubiquitin-protein ligase WWP2 R460A, O00308",-0.072 ± 0.044
4,"NEDD4-like E3 ubiquitin-protein ligase WWP2 R460C, O00308",-0.277 ± 0.074
5,"NEDD4-like E3 ubiquitin-protein ligase WWP2 R460D, O00308",-0.169 ± 0.083
6,"NEDD4-like E3 ubiquitin-protein ligase WWP2 R460E, O00308",-0.183 ± 0.063
7,"NEDD4-like E3 ubiquitin-protein ligase WWP2 R460F, O00308",-0.261 ± 0.065
8,"NEDD4-like E3 ubiquitin-protein ligase WWP2 R460G, O00308",-0.166 ± 0.041
9,"NEDD4-like E3 ubiquitin-protein ligase WWP2 R460H, O00308",-0.033 ± 0.081
10,"NEDD4-like E3 ubiquitin-protein ligase WWP2 R460I, O00308",-0.036 ± 0.074
11,"NEDD4-like E3 ubiquitin-protein ligase WWP2 R460K, O00308",-0.088 ± 0.064
12,"NEDD4-like E3 ubiquitin-protein ligase WWP2 R460L, O00308",-0.088 ± 0.036
13,"NEDD4-like E3 ubiquitin-protein ligase WWP2 R460N, O00308",-0.343 ± 0.073
14,"NEDD4-like E3 ubiquitin-protein ligase WWP2 R460P, O00308",-0.032 ± 0.06
15,"NEDD4-like E3 ubiquitin-protein ligase WWP2 R460Q, O00308",-0.104 ± 0.054
16,"NEDD4-like E3 ubiquitin-protein ligase WWP2 R460S, O00308",-0.153 ± 0.06
17,"NEDD4-like E3 ubiquitin-protein ligase WWP2 R460T, O00308",-0.032 ± 0.061
18,"NEDD4-like E3 ubiquitin-protein ligase WWP2 R460V, O00308",-0.137 ± 0.044
19,"NEDD4-like E3 ubiquitin-protein ligase WWP2 R460W, O00308",-0.413 ± 0.036
20,"NEDD4-like E3 ubiquitin-protein ligase WWP2 R460Y, O00308",-0.558 ± 0.12
21,"NEDD4-like E3 ubiquitin-protein ligase WWP2 R468A, O00308",-0.157 ± 0.035
22,"NEDD4-like E3 ubiquitin-protein ligase WWP2 R468C, O00308",-0.184 ± 0.06
